Series [1] has as its system CC(=O)N[C@H]1[C@H](Oc2ccc([N+](=O)[O-])cc2)O[C@H](CO)[C@@H](O)[C@@H]1O. The series can be described thus: purified protein.
The target in series [2] is T1, human O-GlcNAc hydrolase (hOGA) (Homo sapiens, UniProt O60502, DEL397-534).
T1 sequence (O60502 11-396): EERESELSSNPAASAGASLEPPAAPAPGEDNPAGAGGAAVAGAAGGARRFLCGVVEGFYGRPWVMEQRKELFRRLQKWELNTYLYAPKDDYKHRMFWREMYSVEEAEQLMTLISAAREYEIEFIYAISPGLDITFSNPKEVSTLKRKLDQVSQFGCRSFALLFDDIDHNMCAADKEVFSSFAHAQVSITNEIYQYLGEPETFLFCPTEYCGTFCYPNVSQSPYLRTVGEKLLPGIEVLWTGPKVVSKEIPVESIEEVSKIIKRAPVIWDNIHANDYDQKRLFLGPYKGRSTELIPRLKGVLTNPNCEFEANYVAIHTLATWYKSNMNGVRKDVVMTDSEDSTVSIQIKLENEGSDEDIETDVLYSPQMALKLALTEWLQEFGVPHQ
T1 sequence (O60502 535-715): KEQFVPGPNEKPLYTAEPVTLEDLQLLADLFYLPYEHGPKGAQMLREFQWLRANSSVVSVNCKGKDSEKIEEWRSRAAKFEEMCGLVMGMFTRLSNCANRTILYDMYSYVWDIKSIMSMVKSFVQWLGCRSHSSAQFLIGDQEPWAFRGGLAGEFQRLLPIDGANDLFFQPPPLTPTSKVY
As to the kind of experiment: X-ray crystal structure. The format is biochemical. The settings on record: cited from earlier work.

The series “SEC-MALS” concerns the molecule itself. The series can be described thus: SEC-MALS. For orientation: Size exclusion chromatography separates by hydrodynamic size, large species first.

As a reminder, the Km is the concentration of substrate that gives half-maximal velocity. As usually defined, the Ki is the equilibrium dissociation constant of an inhibitor or competing ligand from its target. Usually stoichiometry N stands for the number of molecules, sites or subunits per partner or assembly.

In the case of “human O-GlcNAc hydrolase (hOGA) (Homo sapiens; DEL397-534)”, the Michaelis constant (Km) in series [1] is 40.93 µM.

For the molecule PUGNAc-imidazole, the Ki in series [2] is 3.9 µM.

B1: near full-length hOGA (His(6)9-916) (enzyme, human, UniProt O60502 9-916, looked up)
chain: TLEERESELSSNPAASAGASLEPPAAPAPGEDNPAGAGGAAVAGAAGGARRFLCGVVEGFYGRPWVMEQRKELFRRLQKWELNTYLYAPKDDYKHRMFWREMYSVEEAEQLMTLISAAREYEIEFIYAISPGLDITFSNPKEVSTLKRKLDQVSQFGCRSFALLFDDIDHNMCAADKEVFSSFAHAQVSITNEIYQYLGEPETFLFCPTEYCGTFCYPNVSQSPYLRTVGEKLLPGIEVLWTGPKVVSKEIPVESIEEVSKIIKRAPVIWDNIHANDYDQKRLFLGPYKGRSTELIPRLKGVLTNPNCEFEANYVAIHTLATWYKSNMNGVRKDVVMTDSEDSTVSIQIKLENEGSDEDIETDVLYSPQMALKLALTEWLQEFGVPHQYSSRQVAHSGAKASVVDGTPLVAAPSLNATTVVTTVYQEPIMSQGAALSGEPTTLTKEEEKKQPDEEPMDMVVEKQEETDHKNDNQILSEIVEAKMAEELKPMDTDKESIAESKSPEMSMQEDCISDIAPMQTDEQTNKEQFVPGPNEKPLYTAEPVTLEDLQLLADLFYLPYEHGPKGAQMLREFQWLRANSSVVSVNCKGKDSEKIEEWRSRAAKFEEMCGLVMGMFTRLSNCANRTILYDMYSYVWDIKSIMSMVKSFVQWLGCRSHSSAQFLIGDQEPWAFRGGLAGEFQRLLPIDGANDLFFQPPPLTPTSKVYTIRPYFPKDEASVYKICREMYDDGVGLPFQSQPDLIGDKLVGGLLSLSLDYCFVLEDEDGICGYALGTVDVTPFIKKCKISWIPFMQEKYTKPNGDKELSEAEKIMLSFHEEQEVLPETFLANFPSLIKMDIHKKVTDPSVAKSMMACLLSSLKANGSRGAFCEVRPDDKRILEFYSKLGCFEIAKMEGFPKDVVILGRSL
For the molecule B1, the “stoichiometry N” value in the series “SEC-MALS” was found to be 2.

B2: hOGA Split1 (co-expressed fragments 11-396 and 535-715) (complex, human)
chain 1: T1 sequence (O60502 11-396)
chain 2: T1 sequence (O60502 535-715)
For the molecule B2, in “SEC-MALS”, the “stoichiometry N” value came to 2.
